Data from paper PMC5334656, “McMYB12 Transcription Factors Co-regulate Proanthocyanidin and Anthocyanin Biosynthesis in Malus Crabapple”.

T1: McMYB12b (Malus crabapple, UniProt X2EZI4 1-374)
T1 sequence: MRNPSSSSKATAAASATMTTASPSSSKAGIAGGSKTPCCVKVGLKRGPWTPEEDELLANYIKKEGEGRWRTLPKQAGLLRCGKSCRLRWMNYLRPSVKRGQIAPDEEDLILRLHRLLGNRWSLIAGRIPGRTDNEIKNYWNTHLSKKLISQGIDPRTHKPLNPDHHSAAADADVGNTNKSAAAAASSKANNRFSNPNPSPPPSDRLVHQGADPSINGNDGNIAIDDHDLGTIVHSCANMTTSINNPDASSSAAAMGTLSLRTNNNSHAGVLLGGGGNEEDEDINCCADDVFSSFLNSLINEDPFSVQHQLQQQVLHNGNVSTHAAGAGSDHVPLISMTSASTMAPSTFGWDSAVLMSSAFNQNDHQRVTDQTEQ

T2: McMYB12a (Malus crabapple, UniProt X2EXK4 1-364)
T2 sequence: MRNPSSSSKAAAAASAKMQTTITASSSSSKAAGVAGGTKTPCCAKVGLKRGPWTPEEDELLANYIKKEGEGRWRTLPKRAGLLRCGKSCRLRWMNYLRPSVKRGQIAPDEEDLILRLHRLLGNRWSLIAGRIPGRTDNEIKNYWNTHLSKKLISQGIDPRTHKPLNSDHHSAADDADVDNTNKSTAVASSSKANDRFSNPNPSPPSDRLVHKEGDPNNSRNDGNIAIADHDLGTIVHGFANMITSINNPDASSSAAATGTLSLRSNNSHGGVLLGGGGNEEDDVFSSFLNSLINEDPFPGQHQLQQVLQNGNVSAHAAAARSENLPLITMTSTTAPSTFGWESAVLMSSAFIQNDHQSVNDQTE

B1: proMcANS probe (dsDNA)
DNA 1: AGATCATTGCTCCAACTGGCTAAAATTAAGTGACCATTACTATAAT
DNA 2: ATTATAGTAATGGTCACTTAATTTTAGCCAGTTGGAGCAATGATCT
B2: proMcLAR1 probe (dsDNA)
DNA 1: GGACAGAAATTATCCATACACCCTTTTCGTTAATGTTGCAAACTGAGT
DNA 2: ACTCAGTTTGCAACATTAACGAAAAGGGTGTATGGATAATTTCTGTCC
B3: proMcANR1 probe (dsDNA)
DNA 1: ATTCTGAGTACTGTAACCTAAGTTGAAGTTGAATAATTGACGTCGTC
DNA 2: GACGACGTCAATTATTCAACTTCAACTTAGGTTACAGTACTCAGAAT
B4: proMcANR2 probe (dsDNA)
DNA 1: ATTGGGAGATATGTGCTCGTTTTAGAGTGCTTTTAAAATAACTGAAAAC
DNA 2: GTTTTCAGTTATTTTAAAAGCACTCTAAAACGAGCACATATCTCCCAAT
B5: proMcLAR2 probe (dsDNA)
DNA 1: AAGTATGGTATAAACACAGACTAAGCCTCATTATCATATCCATATCAT
DNA 2: ATGATATGGATATGATAATGAGGCTTAGTCTGTGTTTATACCATACTT
B6: proMcCHS probe (dsDNA)
DNA 1: GCAACTCCTCCCAACTGTGTGGATCAAGCCACATACCCCGACTATTACT
DNA 2: AGTAATAGTCGGGGTATGTGGCTTGATCCACACAGTTGGGAGGAGTTGC

Key:
[1] = target: T1, McMYB12b; assay: EMSA; LightShift Chemiluminescent EMSA Kit per manufacturer; 10 ug protein, 25 pmol biotin probe, 10- to 1000-fold competitor; buffer, salt, pH and temperature not stated; conditions: protein: recombinant; label: biotin; blunt
[2] = target: T2, McMYB12a; assay: as above; conditions: protein: recombinant; label: biotin; blunt

Binder | binding result [1] | binding result [2]
B1 | binds | binds
B2 | binds | no binding
B3 | binds | binds
B4 | binds | binds
B5 | binds | binds
B6 |  | binds
